Data from patent US20120324606A1.

What was measured:
[1] = biological target: BBMV proteins (receptor binding sites) in brush border membrane vesicles from European corn borer (ECB; Ostrinia nubilalis) larval midgut; assay: heterologous competition: unlabeled Cry1Be against 0.5 nM 125I Cry1Ab on ECB BBMVs; reference is homologous Cry1Ab
[2] = biological target: BBMV proteins (receptor binding sites) in brush border membrane vesicles from European corn borer (ECB; Ostrinia nubilalis) larval midgut; assay: heterologous competition: unlabeled Cry1Be against 0.5 nM 125I Cry1Ab on ECB BBMVs
[3] = biological target: BBMV proteins (receptor binding sites) in brush border membrane vesicles from fall armyworm (FAW; Spodoptera frugiperda) larval midgut; assay: homologous competition: unlabeled Cry1Be against 0.5 nM 125I Cry1Be on FAW BBMVs
[4] = biological target: BBMV proteins (receptor binding sites) in brush border membrane vesicles from fall armyworm (FAW; Spodoptera frugiperda) larval midgut; assay: heterologous competition: unlabeled Cry1Be against 0.5 nM 125I Cry1Ab on FAW BBMVs; reference is homologous Cry1Ab
[5] = biological target: BBMV proteins (receptor binding sites) in brush border membrane vesicles from fall armyworm (FAW; Spodoptera frugiperda) larval midgut; assay: heterologous competition: unlabeled Cry1Be against 0.5 nM 125I Cry1Ab on FAW BBMVs

B1: Cry1Be insecticidal protein (purified truncated Cry toxin) (ligand)
chain: IEDSLCIAEGNNIDPFVSASTVQTGINIAGRILGVLGVPFAGQIASFYSFLVGELWPRGRDPWEIFLEHVEQLIRQQVTENTRDTALARLQGLGNSFRAYQQSLEDWLENRDDARTRSVLYTQYIALELDFLNAMPLFAIRNQEVPLLMVYAQAANLHLLLLRDASLFGSEFGLTSQEIQRYYERQVEKTREYSDYCARWYNTGLNNLRGTNAESWLRYNQFRRDLTLGVLDLVALFPSYDTRVYPMNTSAQLTREIYTDPIGRTNAPSGFASTNWFNNNAPSFSAIEAAVIRPPHLLDFPEQLTIFSVLSRWSNTQYMNYWVGHRLESRTIRGSLSTSTHGNTNTSINPVTLQFTSRDVYRTESFAGINILLTTPVNGVPWARFNWRNPLNSLRGSLLYTIGYTGVGTQLFDSETELPPETTERPNYESYSHRLSNIRLISGNTLRAPVYSWTHRSADRTNTISSDSITQIPLVKSFNLNSGTSVVSGPGFTGGDIIRTNVNGSVLSMGLNFNNTSLQRYRVRVRYAASQTMVLRVTVGGSTTFDQGFPSTMSANESLTSQSFRFAEFPVGISASGSQTAGISISNNAGRQTFHFDKIEFIPITAT
modifications: ^125I iodination (Iodo-Beads) in the radiolabeled form only; sites not stated
[1]
  fold higher concentration for 50% displacement, against Cry1Ab: 80 fold
[2]
  IC50: 40 nM
[3]
  IC50: 2 nM
[4]
  fold greater concentration for 50% displacement, against Cry1Ab: 1000 fold
[5]
  IC50: 300 nM
